Measurements published in patent publication US20250051464A1.

Legend:
[1] = biological target: Human EphA2 (ephrin receptor A2) (human) (UniProt P29317); assay: IHC/IF score on frozen human tumor tissue, CRC
[2] = biological target: Human EphA2 (ephrin receptor A2) (human) (UniProt P29317); assay: IHC/IF score on frozen human tumor tissue, URO
[3] = biological target: Human EphA2 (ephrin receptor A2) (human) (UniProt P29317); assay: IHC/IF score on frozen human tumor tissue, UCEC-clear cell
[4] = biological target: Human EphA2 (ephrin receptor A2) (human) (UniProt P29317); assay: IHC/IF score on frozen human tumor tissue, UCEC-endometriod
[5] = biological target: Human EphA2 (ephrin receptor A2) (human) (UniProt P29317); assay: IHC/IF score on frozen human tumor tissue, Her2+ BRC
[6] = biological target: Human EphA2 (ephrin receptor A2) (human) (UniProt P29317); assay: IHC/IF score on frozen human tumor tissue, MELA
[7] = biological target: Human EphA2 (ephrin receptor A2) (human) (UniProt P29317); assay: IHC/IF score on frozen human tumor tissue, OVA
[8] = biological target: Human EphA2 (ephrin receptor A2) (human) (UniProt P29317); assay: IHC/IF score on frozen human tumor tissue, RCC-clear cell
[9] = biological target: Human EphA2 (ephrin receptor A2) (human) (UniProt P29317); assay: IHC/IF score on frozen human tumor tissue, ER+ BRC
[10] = biological target: Human EphA2 (ephrin receptor A2) (human) (UniProt P29317); assay: IHC/IF score on frozen human tumor tissue, ANC
[11] = biological target: Human EphA2 (ephrin receptor A2) (human) (UniProt P29317); assay: IHC/IF score on frozen human tumor tissue, UCEC-papillary
[12] = biological target: Human EphA2 (ephrin receptor A2) (human) (UniProt P29317); assay: IHC/IF score on frozen human tumor tissue, NSCLC-Adeno
[13] = biological target: Human EphA2 (ephrin receptor A2) (human) (UniProt P29317); assay: IHC/IF score on frozen human tumor tissue, GAC
[14] = biological target: Human EphA2 (ephrin receptor A2) (human) (UniProt P29317); assay: IHC/IF score on frozen human tumor tissue, PROC
[15] = biological target: Human EphA2 (ephrin receptor A2) (human) (UniProt P29317); assay: IHC/IF score on frozen human tumor tissue, ESC
[16] = biological target: Human EphA2 (ephrin receptor A2) (human) (UniProt P29317); assay: IHC/IF score on frozen human tumor tissue, PANC
[17] = biological target: Human EphA2 (ephrin receptor A2) (human) (UniProt P29317); assay: IHC/IF score on frozen human tumor tissue, TNBC
[18] = biological target: Human EphA2 (ephrin receptor A2) (human) (UniProt P29317); assay: IHC/IF score on frozen human tumor tissue, STS
[19] = biological target: Human EphA2 (ephrin receptor A2) (human) (UniProt P29317); assay: IHC/IF score on frozen human tumor tissue, NSCLC-SQ
[20] = biological target: Human EphA2 (ephrin receptor A2) (human) (UniProt P29317); assay: IHC/IF score on frozen human tumor tissue, HNC
[21] = biological target: Human EphA2 (ephrin receptor A2) (human) (UniProt P29317); assay: IHC/IF score on frozen human tumor tissue, RCC-papillary

Sequence of Human EphA2 (ephrin receptor A2) (human) (P29317 24-976 limits assumed): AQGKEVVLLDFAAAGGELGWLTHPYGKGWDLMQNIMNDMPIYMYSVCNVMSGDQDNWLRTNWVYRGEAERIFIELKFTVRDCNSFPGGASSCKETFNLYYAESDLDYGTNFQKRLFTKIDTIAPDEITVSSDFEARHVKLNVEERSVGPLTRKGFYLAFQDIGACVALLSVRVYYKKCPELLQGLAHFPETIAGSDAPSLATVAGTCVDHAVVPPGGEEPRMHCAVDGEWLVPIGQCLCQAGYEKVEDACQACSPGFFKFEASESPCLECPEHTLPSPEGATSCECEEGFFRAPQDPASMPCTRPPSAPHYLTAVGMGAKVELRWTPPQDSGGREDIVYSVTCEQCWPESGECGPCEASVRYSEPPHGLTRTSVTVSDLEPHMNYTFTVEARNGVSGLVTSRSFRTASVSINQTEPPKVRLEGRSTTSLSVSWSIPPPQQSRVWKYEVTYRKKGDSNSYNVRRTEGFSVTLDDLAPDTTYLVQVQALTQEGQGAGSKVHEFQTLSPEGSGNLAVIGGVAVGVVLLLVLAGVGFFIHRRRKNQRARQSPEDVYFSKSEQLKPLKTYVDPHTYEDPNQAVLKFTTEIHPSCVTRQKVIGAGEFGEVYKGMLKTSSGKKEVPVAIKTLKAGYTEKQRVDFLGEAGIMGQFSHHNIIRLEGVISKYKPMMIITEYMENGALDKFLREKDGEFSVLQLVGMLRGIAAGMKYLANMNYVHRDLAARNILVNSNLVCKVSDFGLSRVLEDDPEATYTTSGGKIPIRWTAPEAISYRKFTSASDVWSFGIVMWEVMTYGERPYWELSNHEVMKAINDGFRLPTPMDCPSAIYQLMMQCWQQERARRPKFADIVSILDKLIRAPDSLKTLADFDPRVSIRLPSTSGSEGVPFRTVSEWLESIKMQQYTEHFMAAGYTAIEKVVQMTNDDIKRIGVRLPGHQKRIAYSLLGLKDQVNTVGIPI

| Substance | IHC score [1] | IHC score [2] | IHC score [3] | IHC score [4] | IHC score [5] | IHC score [6] | IHC score [7] | IHC score [8] | IHC score [9] | IHC score [10] | IHC score [11] | IHC score [12] | IHC score [13] | IHC score [14] | IHC score [15] | IHC score [16] | IHC score [17] | IHC score [18] | IHC score [19] | IHC score [20] | other results |
| --- | --- | --- | --- | --- | --- | --- | --- | --- | --- | --- | --- | --- | --- | --- | --- | --- | --- | --- | --- | --- | --- |
| 6997S (around Arg907) (antibody) | 1 | 1 | 2 | 1 | 1 | 2 | 1 | 1 | 1 | 2 | 2 | 1 | 1 | 1 | 2 | 1 | 1 | 1 | 1 | 1 | IHC score [21]: 1 |
| Ab73254 (extracellular) (antibody) | 1 | 1 | 2 | 1 | 1 | 2 | 1 | 1 | 1 | 1 | 1 | 2 | 1 | 1 | 1 | 1 | 1 | 1 | 2 | 1 | IHC score [21]: 1 |
| LS-B1794-50 (AA 450-500) (antibody) | 1 | 1 | 2 | 1 | 1 | 2 | 1 | 1 | 1 | 1 | 2 | 2 | 1 | 1 | 1 | 1 | 1 | 1 | 1 | 1 | IHC score [21]: 2 |
| LS-C36249-100 (extracellular) (antibody) | 1 | 1 | 2 | 2 | 2 | 3 | 2 | 1 | 1 | 2 | 3 | 2 | 1 | 1 | 2 | 1 | 1 | 2 | 2 | 2 | IHC score [21]: 1 |

Now from value to substance, other results behind:

| IHC score [1] | IHC score [2] | IHC score [3] | IHC score [4] | IHC score [5] | IHC score [6] | IHC score [7] | IHC score [8] | IHC score [9] | IHC score [10] | IHC score [11] | IHC score [12] | IHC score [13] | IHC score [14] | IHC score [15] | IHC score [16] | IHC score [17] | IHC score [18] | IHC score [19] | IHC score [20] | Substance | other results |
| --- | --- | --- | --- | --- | --- | --- | --- | --- | --- | --- | --- | --- | --- | --- | --- | --- | --- | --- | --- | --- | --- |
| 1 | 1 | 2 | 1 | 1 | 2 | 1 | 1 | 1 | 1 | 2 | 1 | 1 | 1 | 1 | 1 | 1 | 1 | 1 | 1 | LS-C100255-400 (AA 30-60) (antibody) | IHC score [21]: 1 |
| 1 | 1 | 2 | 2 | 1 | 3 | 2 | 1 | 1 | 2 | 2 | 2 | 1 | 1 | 2 | 2 | 1 | 1 | 2 | 2 | MAB3035 (Gln25-Asn534) (antibody) | IHC score [21]: 1 |
